Assay results taken from patent US20080267971A1 (published 2008).
Substitutions are numbered along the chain they refer to.

B1: mAb 3.19.3 (antibody, V domains shown)
VH: QVQLVESGGGVVQPGRSLRLSCAASGFTFTNYGMHWGRQAPGKGLEWVAVISHDGNNKYYVDSVKGRFTISRDNSKNTLYLQMNSLRAEDTAVYYCAREGIDFWSGLNWFDPWGQGTLVTVSS
VL: EIVLTQSPGTLSLSPGERATLSCRASQSITGSYLAWYQQKPGQAPRLLICGASSWATGIPDRFSGSGSGTDFTLTISRLEPEDFAVYYCQQYSSSPITFGQGTRLEIKR
notes: Human hybridoma IgG (XenoMouse); also called x3.19
B2: mAb 5.83.1 (antibody, V domains shown)
VH: not shown
VL: EIVMTQSPATLSVSPGERATLSCRASQSLISNLAWYQQKPGQAPRLLIFGASTRATGIPARFSGSGSGTEFTLTISSLQSEDFAVYYCHQYNNWWTFGQGTKVEIKR
notes: Human hybridoma IgG (XenoMouse); also called x5.83
B3: mAb 3.31.2 (antibody, V domains shown)
VH: EVQLVESGGGLVQPGGSLRLSCAASGFTFSSYWMSWVRQAPGKGLEWVANIKQDGSDKYYVDSVKGRFTISRDNAKNSLYLRMNSLRAEDTAVFYCARDMGSGWFDYWGQGTLVTVSS
VL: B2 VL with I2V, L29V, I30G, F49Y, Y87C, H89Q, N93H
notes: Human hybridoma IgG (XenoMouse); also called x3.31
B4: mAb 5.88.3 (antibody, V domains shown)
VH: EVQMVESGGGLVQPGGSLRLSCAASGFTLRSYWMSWVRQAPGKGLEWVANIKEDGSEKYHVDSVKGRFTISRDNAENSLFLQMSSLRAEDTAVYYCARDMEASAGLFDYWGQGTLVTVSS
VL: B2 VL with T20I, L29I, I30S, F49Y, H89Q, N93Y
notes: Human hybridoma IgG (XenoMouse); also called x5.88
B5: mAb 5.13.1 (antibody, V domains shown)
VH: EVQLVESGGGLVQPGGSLRLSCAASGFTFSSYWMSWVRQAPGKGLEWVANIKQDGSEKYYVDSVKGRFTISRDNAKNSLYLQMNSLRAEDTAVYYCARDPGIAVAGPFDYWGQGTLVTVSS
VL: B2 VL with L29V, I30S, F49Y, H89Q, N93H
notes: Human hybridoma IgG (XenoMouse); also called x5.13
B6: mAb 3.3.2 (antibody, V domains shown)
VH: B5 VH with A24V, P100Q
VL: B2 VL with S28T, L29V, I30S, N32D, F49Y, T53I, Y87S, H89Q, N92Y
notes: Human hybridoma IgG (XenoMouse); also called 3.3.1; x3.3
B7: mAb 5.54.1 (antibody, V domains shown)
VH: not shown
VL: B2 VL with V85I
notes: Human hybridoma IgG (XenoMouse); also called x5.54
B8: mAb 5.62.1 (antibody, V domains shown)
VH: B5 VH
VL: B2 VL with L29V, I30S, F49Y, S52F, H89Q, N93H, E104G
notes: Human hybridoma IgG (XenoMouse); also called x5.62
B9: mAb 5.101.1 (antibody, V domains shown)
VH: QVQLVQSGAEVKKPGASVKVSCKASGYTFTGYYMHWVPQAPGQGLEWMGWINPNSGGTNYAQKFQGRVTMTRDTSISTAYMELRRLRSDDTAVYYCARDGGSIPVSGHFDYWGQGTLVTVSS
VL: B2 VL
notes: Human hybridoma IgG (XenoMouse); also called x5.101
B10: mAb 5.86.1 (antibody, V domains shown)
VH: QVQLVQSGAEVKKPGASVKVSCKASGYTFTGYHMYWVRQAPGQGLEWLGWINPNSGGTNYAQKFQGRVTMTRDTSISTAYMELSRLRSDDTAVYYCVRDQGIAAAGPFDYWCQGTLVTVSS
VL: DIRMTQSPSSLSASVGDRVTITCRASQRISTYLNWYQQKPGKAPKFLIYAASSLQSGVPSRFSGSGSGTDFTLTISSLQPEDFATYYCQQSYTTPFTFGPGTKVDIKR
notes: Human hybridoma IgG (XenoMouse); also called x5.86
B11: mAb 5.103.1 (antibody, V domains shown)
VH: B10 VH with H33Y, M34L, R38P, L48M, N52S, V97A, G101V, A104V, C112A
VL: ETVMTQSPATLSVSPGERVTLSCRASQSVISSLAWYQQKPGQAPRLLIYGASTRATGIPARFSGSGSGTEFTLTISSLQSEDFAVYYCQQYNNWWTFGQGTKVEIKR
notes: Human hybridoma IgG (XenoMouse); also called 5.103.3; x5.103

Biological target: T1, human Ang-2443 (human, UniProt O15123 19-496)
T1 construct: Splice variant missing amino acids 96-148; supernatant of transfected 293F cells
T1 sequence: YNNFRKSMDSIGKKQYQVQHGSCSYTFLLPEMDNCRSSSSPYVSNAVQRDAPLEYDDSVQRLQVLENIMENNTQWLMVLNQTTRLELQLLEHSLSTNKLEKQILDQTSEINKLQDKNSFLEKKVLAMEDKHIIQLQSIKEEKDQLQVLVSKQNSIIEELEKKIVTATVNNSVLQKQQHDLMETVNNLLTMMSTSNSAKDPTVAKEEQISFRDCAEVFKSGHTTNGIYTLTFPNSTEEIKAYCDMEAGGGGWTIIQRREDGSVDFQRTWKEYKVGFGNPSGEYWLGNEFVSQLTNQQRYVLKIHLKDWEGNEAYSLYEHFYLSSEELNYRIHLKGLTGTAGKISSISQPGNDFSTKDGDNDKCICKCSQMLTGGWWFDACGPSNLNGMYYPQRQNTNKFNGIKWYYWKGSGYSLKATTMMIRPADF
Assay: ELISA

| % of binding to human Ang-2 | Binder |
| --- | --- |
| 100% | B1 |
| 100% | B2 |
| 100% | B3 |
| 100% | B4 |
| 100% | B5 |
| 100% | B6 |
| 100% | B7 |
| 100% | B8 |
| 100% | B9 |
| 100% | B10 |
| 100% | B11 |

Biological target: T2, Human Ang-1/2 BsmI chimeric molecule (human)
T2 chain: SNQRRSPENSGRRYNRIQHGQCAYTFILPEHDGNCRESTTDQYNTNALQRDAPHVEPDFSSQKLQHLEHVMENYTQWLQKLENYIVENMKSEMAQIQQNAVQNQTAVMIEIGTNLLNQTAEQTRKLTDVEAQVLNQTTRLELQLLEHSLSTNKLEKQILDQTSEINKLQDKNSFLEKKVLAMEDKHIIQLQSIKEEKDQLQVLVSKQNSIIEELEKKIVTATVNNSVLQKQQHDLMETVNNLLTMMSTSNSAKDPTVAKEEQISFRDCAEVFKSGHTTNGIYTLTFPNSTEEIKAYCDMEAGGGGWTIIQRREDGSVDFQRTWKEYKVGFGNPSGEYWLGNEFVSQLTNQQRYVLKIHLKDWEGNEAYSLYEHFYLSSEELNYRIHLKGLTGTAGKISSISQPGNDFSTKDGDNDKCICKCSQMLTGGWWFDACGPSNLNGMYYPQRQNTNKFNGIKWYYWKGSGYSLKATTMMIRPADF
Assay: ELISA

| % of binding to human Ang-2 | Binder |
| --- | --- |
| 100% | B1 |
| 100% | B2 |
| 100% | B3 |
| 100% | B4 |
| 100% | B5 |
| 100% | B6 |
| 100% | B7 |
| 100% | B8 |
| 100% | B9 |
| 100% | B10 |
| 100% | B11 |

Biological target: T3, Mouse/Human Ang-2 StuI chimeric molecule (mouse; human, UniProt O35608 19-496)
T3 construct: also called M/H Stul 310-496
T3 chain: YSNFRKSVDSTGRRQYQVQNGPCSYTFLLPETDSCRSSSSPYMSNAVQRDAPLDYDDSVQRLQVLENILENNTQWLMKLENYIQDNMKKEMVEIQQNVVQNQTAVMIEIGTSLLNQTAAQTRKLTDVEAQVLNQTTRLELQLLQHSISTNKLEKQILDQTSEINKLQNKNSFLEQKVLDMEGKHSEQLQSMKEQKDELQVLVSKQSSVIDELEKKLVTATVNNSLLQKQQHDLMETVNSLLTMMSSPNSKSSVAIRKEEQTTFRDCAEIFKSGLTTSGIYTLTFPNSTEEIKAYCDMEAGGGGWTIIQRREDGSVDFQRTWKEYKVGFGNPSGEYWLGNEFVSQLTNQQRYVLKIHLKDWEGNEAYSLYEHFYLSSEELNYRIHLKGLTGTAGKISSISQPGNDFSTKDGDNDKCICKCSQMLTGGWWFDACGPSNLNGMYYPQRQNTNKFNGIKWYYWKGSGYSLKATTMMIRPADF
Assay: ELISA

| % of binding to human Ang-2 | Binder |
| --- | --- |
| 100% | B1 |
| 100% | B2 |
| 100% | B4 |
| 100% | B5 |
| 100% | B6 |
| 100% | B7 |
| 100% | B8 |
| 100% | B9 |
| 100% | B10 |
| 100% | B11 |

Biological target: T4, Mouse/Human chimeric Ang-2 with the human StuI-TfiI fragment (mouse/human chimera, UniProt O35608 19-496)
T4 construct: also called Stu-Tfil 310-400
T4 chain: T3 chain with K386T, G393A, N403S, G410S, T424S, M440Q, R445K
Assay: ELISA

| % of binding to human Ang-2 | Binder |
| --- | --- |
| 100% | B1 |
| 86% | B2 |
| 20% | B4 |
| 27% | B5 |
| 15% | B6 |
| 77% | B7 |
| 30% | B8 |
| 28% | B9 |
| 23% | B10 |

Biological target: T5, human Ang-2 H375Q (human, UniProt O15123 19-496)
T5 sequence: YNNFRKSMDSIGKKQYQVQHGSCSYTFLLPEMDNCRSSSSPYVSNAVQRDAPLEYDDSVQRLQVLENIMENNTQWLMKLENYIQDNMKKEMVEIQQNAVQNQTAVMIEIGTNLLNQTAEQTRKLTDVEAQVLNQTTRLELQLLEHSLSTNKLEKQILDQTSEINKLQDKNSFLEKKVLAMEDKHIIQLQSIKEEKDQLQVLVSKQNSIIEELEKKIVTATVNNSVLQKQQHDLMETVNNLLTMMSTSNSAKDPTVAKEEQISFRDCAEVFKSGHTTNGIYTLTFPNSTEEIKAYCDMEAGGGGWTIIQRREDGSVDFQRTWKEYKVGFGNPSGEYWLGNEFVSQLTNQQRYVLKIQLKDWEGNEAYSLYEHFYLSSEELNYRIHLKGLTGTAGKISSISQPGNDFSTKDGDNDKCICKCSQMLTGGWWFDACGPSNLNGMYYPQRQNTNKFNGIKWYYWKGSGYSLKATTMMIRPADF
Assay: ELISA

| % of binding to human Ang-2 | Binder |
| --- | --- |
| 100% | B1 |
| 100% | B2 |
| 100% | B3 |
| 100% | B4 |
| 100% | B5 |
| 100% | B6 |
| 100% | B7 |
| 100% | B8 |
| 100% | B9 |
| 100% | B10 |
| 100% | B11 |
